Measured values as given in the supplement of paper PMC10724198.
± gives the standard deviation of the averaged measurements.

Tested on: Saccharomyces cerevisiae
Experiment: protein stability index of tFT-peptide fusion (C-terminal peptide) (PSI (0-1 scale)); higher = more stable (slower turnover)
Conditions: temperature: 30 C
Protocol: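 MPS profiling in S. cerevisiae of the yeast C-terminome library: the last 12 aa of each annotated ORF are fused to the C-terminus of a sfGFP-mCherry timer, after a GGGS linker. Cells are FACS-sorted into 8 mCherry/sfGFP bins and deep-sequenced. PSI runs from 0 (unstable) to 1 (stable); wild type and das1Δ backgrounds, two technical replicates each.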

[1] = genetic background: das1 deletion

Sequence | protein stability index [1] | protein stability index (genetic background: wild type)
RKRKQSKSGLLL [NOP8 C-terminal 12 aa] | 0.723 ± 0.024 | 0.699 ± 0.01
RKRLRTLDNWYR [RNH201 C-terminal 12 aa] | 0.7355 ± 0.0016 | 0.7169 ± 0.0049
RLDKATKALEGF [NBA1 C-terminal 12 aa] | 0.6942 ± 0.0018 | 0.702 ± 0.033
RLGNLENIKIPK [AIM4 C-terminal 12 aa] | 0.737 ± 0.0074 | 0.696 ± 0.038
RLLSLWEVFQMA [RPC82 C-terminal 12 aa] | 0.646 ± 0.027 | 0.6182 ± 0.0037
RLNNWLFGWNDL [NUP53 C-terminal 12 aa] | 0.785 ± 0.012 | 0.707 ± 0.0094
RLQAMLNSSSSI [CEF1 C-terminal 12 aa] | 0.681 ± 0.015 | 0.669 ± 0.008
RLRAKSPYAWDD [YHK8 C-terminal 12 aa] | 0.729 ± 0.0089 | 0.721 ± 0.053
RLTSRSGSANRA [SAC7 C-terminal 12 aa] | 0.706 ± 0.028 | 0.65006 ± 5.7e-05
RLVRNVELSKEK [MTD1 C-terminal 12 aa] | 0.708 ± 0.028 | 0.718 ± 0.062
RLWSRKEFRLGT [SNU71 C-terminal 12 aa] | 0.7 ± 0.017 | 0.7 ± 0.029
RMVDKVEGSFSR [YDR109C C-terminal 12 aa] | 0.7218 ± 0.0071 | 0.701 ± 0.028
RPVLSEEQRKNC [YDR344C C-terminal 12 aa] | 0.668 ± 0.0083 | 0.6794 ± 0.0048
RQTKAFISKFMT [DBR1 C-terminal 12 aa] | 0.7208 ± 0.0027 | 0.682 ± 0.05
RRKKKLMDELNL [ISY1 C-terminal 12 aa] | 0.703 ± 0.04 | 0.669 ± 0.017
RRSFFSVFRSEK [AKL1 C-terminal 12 aa] | 0.68 ± 0.019 | 0.746 ± 0.049
RSHRKQPLKRKD [BRE5 C-terminal 12 aa] | 0.69 ± 0.025 | 0.645 ± 0.019
RTHAMLNDIQNI [BNR1 C-terminal 12 aa] | 0.72 ± 0.022 | 0.721 ± 0.091
RVKSLKVGRKSQ [PAL1 C-terminal 12 aa] | 0.688 ± 0.02 | 0.684 ± 0.0082
RVLNNLIVSHNK [MOT3 C-terminal 12 aa] | 0.7102 ± 0.003 | 0.735 ± 0.078
RVSLEKEAKQHG [ERV2 C-terminal 12 aa] | 0.715 ± 0.025 | 0.673 ± 0.0072

Sequence | protein stability index [1] | protein stability index (genetic background: wild type)
RWFKKKKETGGS [BUD2 C-terminal 12 aa] | 0.698 ± 0.0098 | 0.71919 ± 0.00068
RYRLEKVIGKRW [SPO20 C-terminal 12 aa] | 0.704 ± 0.03 | 0.676 ± 0.022
SAIYLLIFRSTR [YPR177C C-terminal 12 aa] | 0.56459 ± 0.00029 | 0.569 ± 0.018
SAMTSKVLSFFL [RRT7 C-terminal 12 aa] | 0.7094 ± 0.0069 | 0.696 ± 0.019
SCAKDILGEENF [BRE4 C-terminal 12 aa] | 0.687 ± 0.0079 | 0.661 ± 0.04
SDAVAEANDIDD [TOM20 C-terminal 12 aa] | 0.673 ± 0.051 | 0.72 ± 0.047
SDEGHAHEDCAK [LOG1 C-terminal 12 aa] | 0.679 ± 0.011 | 0.669 ± 0.015
SFSRIDCCLPDE [TDA5 C-terminal 12 aa] | 0.72 ± 0.013 | 0.707 ± 0.051
SGDIVAVIETLA [DUR12 C-terminal 12 aa] | 0.51 ± 0.033 | 0.571 ± 0.049
SGFQFPFFGEEK [MRPL7 C-terminal 12 aa] | 0.717 ± 0.014 | 0.695 ± 0.037
SGSRVVRKLFEL [FUS2 C-terminal 12 aa] | 0.6964 ± 0.0031 | 0.7 ± 0.016
SGSVYIGSVFLI [YGR121W-A C-terminal 12 aa] | 0.692 ± 0.029 | 0.6421 ± 0.0012
SGWSAKIPVSMI [YCR045W-A C-terminal 12 aa] | 0.704 ± 0.014 | 0.698 ± 0.0077
SGYDYFDVSVSG [YAT1 C-terminal 12 aa] | 0.71 ± 0.022 | 0.712 ± 0.015
SHKGFFQKLGCC [YCK1 C-terminal 12 aa] | 0.692 ± 0.0098 | 0.677 ± 0.01
SIDKWFFISGSV [IPP1 C-terminal 12 aa] | 0.726 ± 0.013 | 0.709 ± 0.0086
SIHIDDFENENN [YGL036W C-terminal 12 aa] | 0.7059 ± 0.0061 | 0.675 ± 0.023
SINGVNLELIKD [MIX14 C-terminal 12 aa] | 0.691 ± 0.041 | 0.635 ± 0.016
SKFTGRKRRHRF [BUD23 C-terminal 12 aa] | 0.67693 ± 0.00035 | 0.711 ± 0.05
SLDKMAQQLGVE [YKR005C C-terminal 12 aa] | 0.698 ± 0.016 | 0.677 ± 0.036
